Values belong to the binder of their own block, whether it stands above or below them.
Columns and labels:
[1] = target: human Kv1.3 protein on cells (human, UniProt P22001 1-575); experiment: cell-based or functional assay
[2] = target: human Kv1.3 protein with C-terminal FLAG and 10xHis tags (human) (UniProt P22001); experiment: ELISA, supernatant, dilution 50
[3] = target: human Kv1.3 protein with C-terminal FLAG and 10xHis tags (human) (UniProt P22001); experiment: ELISA, supernatant, dilution 250
[4] = target: human Kv1.3 protein with C-terminal FLAG and 10xHis tags (human) (UniProt P22001); experiment: ELISA, supernatant, dilution 1250
[5] = target: human Kv1.3 protein with C-terminal FLAG and 10xHis tags (human) (UniProt P22001); experiment: ELISA, supernatant, dilution 6250

human Kv1.3 protein with C-terminal FLAG and 10xHis tags (human), sequence (P22001 other isoform, or with tags, fused parts or gaps): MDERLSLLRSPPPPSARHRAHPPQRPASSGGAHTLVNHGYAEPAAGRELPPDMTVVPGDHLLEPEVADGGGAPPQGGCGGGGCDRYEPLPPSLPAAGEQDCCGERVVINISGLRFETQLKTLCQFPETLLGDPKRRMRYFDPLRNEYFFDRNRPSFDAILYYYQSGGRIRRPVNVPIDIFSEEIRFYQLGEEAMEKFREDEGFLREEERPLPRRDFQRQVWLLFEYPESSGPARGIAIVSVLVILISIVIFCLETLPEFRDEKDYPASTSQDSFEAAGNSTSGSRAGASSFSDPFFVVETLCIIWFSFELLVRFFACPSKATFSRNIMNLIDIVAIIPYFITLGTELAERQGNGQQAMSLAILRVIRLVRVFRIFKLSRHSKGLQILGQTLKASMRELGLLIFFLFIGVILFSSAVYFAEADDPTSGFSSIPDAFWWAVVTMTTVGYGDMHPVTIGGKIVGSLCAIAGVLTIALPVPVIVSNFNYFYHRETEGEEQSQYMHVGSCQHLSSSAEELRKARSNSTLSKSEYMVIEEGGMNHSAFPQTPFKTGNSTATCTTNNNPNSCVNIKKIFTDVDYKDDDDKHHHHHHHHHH
human Kv1.3 protein on cells, sequence (P22001 whole entry): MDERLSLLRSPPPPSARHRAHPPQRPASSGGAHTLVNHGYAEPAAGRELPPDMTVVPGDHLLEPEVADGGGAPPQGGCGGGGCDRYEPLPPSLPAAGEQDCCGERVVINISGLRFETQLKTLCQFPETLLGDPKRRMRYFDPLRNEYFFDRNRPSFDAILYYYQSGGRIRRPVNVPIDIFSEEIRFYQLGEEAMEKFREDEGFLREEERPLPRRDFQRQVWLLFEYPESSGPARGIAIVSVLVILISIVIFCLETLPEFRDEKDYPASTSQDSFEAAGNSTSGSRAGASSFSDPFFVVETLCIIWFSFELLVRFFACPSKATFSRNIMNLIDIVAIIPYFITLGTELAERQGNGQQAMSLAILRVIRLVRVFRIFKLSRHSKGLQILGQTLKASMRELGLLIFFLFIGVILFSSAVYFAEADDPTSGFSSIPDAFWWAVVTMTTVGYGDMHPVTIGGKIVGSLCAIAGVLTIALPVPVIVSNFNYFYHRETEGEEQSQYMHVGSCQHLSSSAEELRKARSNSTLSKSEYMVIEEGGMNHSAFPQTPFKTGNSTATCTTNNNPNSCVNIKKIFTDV

IC50, dose-response of Kv1.3 current block (whole-cell patch clamp) [1]: 109 nM
B1: 1A3 (Fc fusion, not shown: small tags and cut ends; a dimerising Fc or GST)
scFv (part 1 of 2): LDIQMTQSPSSVTASVGEKVTINCKSSQSVVSASNQKSYLNWYQQRPGQSPRLLIYYASTQELGIPDRFSGSGSTTDFTLTISSVQPEDAAVYYCQQAYSAPYNFGSGTRLEIK
scFv (part 2 of 2): QVQLQESGGGLVQPGGSLRLSCAASGFTFSINGMSWVRQAPGKEVEWVSSINSGGEITNYRDSVKGRFTISRDNVKNTLYLQMNSLKPEDTAFYHCVTGIVAYDYWGQGTQVTVSS

IC50, dose-response of Kv1.3 current block (whole-cell patch clamp) [1]: 6 nM
ELISA signal [2]: 0.077
ELISA signal [3]: 0.074
ELISA signal [4]: 0.077
ELISA signal [5]: 0.084
B2: 19724p1.E6 (Fc fusion, not shown: small tags and cut ends; a dimerising Fc or GST)
scFv (part 1 of 2): ALTQPASVSANLGETVEITCSGGYSDDGSYYYGWYQQKSPGSAPVTVIYENNKRPSDIPSRFSGSLSGSTNTLTITGVRAEDEAVYYCGSWDSSAGIFGAGTTLTVL
scFv (part 2 of 2): MAAVTLDESGGGLQTPGGTLSLVCKASGFTFSSHGMQWVRQAPGKGLEWVAGISRDGSRTRYGAAVKGRATISRDNGQSTVRLQLNNLRAEDTAIYFCAKSAYECDGYSCWTFIAGSIDAWGHGTEVIVS

Source: patent US20190144538A1 (TETRAGENETICS, published 2019)
